Target: T1, murine FAP (murine, UniProt P97321 27-761, limits assumed)
T1 construct: also called mouse FAP; murine FAP (Analyte 2)
Experiment: SPR (Biacore T200, 25 C, HBS-EP), simultaneous binding; muFAP-4-1BB held on immobilized murine 4-1BB Fc(kih); murine FAP 500 nM as second analyte, 30 uL/min, 90 s, dissociation 120 s
Procedure: All SPR experiments were performed on a Biacore T200 at 25° C. with HBS-EP as running buffer (0.01 M HEPES pH 7.4, 0.15 M NaCl, 3 mM EDTA, 0.005% Surfactant P20, Biacore, Freiburg/Germany). […] Immobilization levels up to 600 resonance units (RU) were used.
Murine FAP was injected as second analyte with a flow of 30 μL/minute through the flow cells over 90 seconds at a concentration of 500 nM. The dissociation was monitored for 120 sec. Bulk refractive index differences were corrected for by subtracting the response obtained in a reference flow cell, where no protein was immobilized.

T1 sequence (P97321 27-761 limits assumed): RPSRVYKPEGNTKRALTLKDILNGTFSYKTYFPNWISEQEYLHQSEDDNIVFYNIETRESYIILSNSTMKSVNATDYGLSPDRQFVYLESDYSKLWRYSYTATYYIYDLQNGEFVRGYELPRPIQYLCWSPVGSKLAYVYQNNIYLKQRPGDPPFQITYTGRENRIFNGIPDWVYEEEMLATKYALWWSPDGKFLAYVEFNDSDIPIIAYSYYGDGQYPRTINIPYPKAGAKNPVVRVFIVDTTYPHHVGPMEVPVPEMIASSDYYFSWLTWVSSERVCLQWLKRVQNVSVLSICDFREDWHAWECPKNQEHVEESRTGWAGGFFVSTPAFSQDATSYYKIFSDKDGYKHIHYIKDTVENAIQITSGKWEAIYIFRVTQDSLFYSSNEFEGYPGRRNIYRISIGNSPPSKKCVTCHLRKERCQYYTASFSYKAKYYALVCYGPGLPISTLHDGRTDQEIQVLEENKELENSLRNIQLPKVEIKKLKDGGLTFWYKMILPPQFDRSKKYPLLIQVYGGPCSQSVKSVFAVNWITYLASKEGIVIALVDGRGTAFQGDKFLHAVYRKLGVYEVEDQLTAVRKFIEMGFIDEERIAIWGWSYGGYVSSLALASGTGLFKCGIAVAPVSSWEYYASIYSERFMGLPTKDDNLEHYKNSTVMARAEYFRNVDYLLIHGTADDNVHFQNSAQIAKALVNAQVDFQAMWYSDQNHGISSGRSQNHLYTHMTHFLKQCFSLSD

B1: 4-1BB (MU137-1)/FAP(28H1) DAPG IgG1 2+1 (Fc-DD-VL) (bispecific antibody)
heavy 1: DVQLVESGGGLVQPGRSLKLSCAASGFIFSYFDMAWVRQAPTKGLEWVASISPSGDIPYYRDSVKGRFTVSRENAKSSLYLQMDSLRSEDTATYYCARRSYGGYSELDYWGQGVMVTVSSAKTTPPSVYPLAPGSAAQTNSMVTLGCLVKGYFPEPVTVTWNSGSLSSGVHTFPAVLQSDLYTLSSSVTVPSSTWPSQTVTCNVAHPASSTKVDKKIVPRDCGCKPCICTVPEVSSVFIFPPKPKDVLTITLTPKVTCVVVAISKDDPEVQFSWFVDDVEVHTAQTKPREEQINSTFRSVSELPIMHQDWLNGKEFKCRVNSAAFGAPIEKTISKTKGRPKAPQVYTIPPPKEQMAKDKVSLTCMITNFFPEDITVEWQWNGQPAENYDNTQPIMDTDGSYFVYSDLNVQKSNWEAGNTFTCSVLHEGLHNHHTEKSLSHSPGGGGGSGGGGSGGGGSGGGGSEIVLTQSPGTLSLSPGERATLSCRASQSVSRSYLAWYQQKPGQAPRLLIIGASTRATGIPDRFSGSGSGTDFTLTISRLEPEDFAVYYCQQGQVIPPTFGQGTKVEIK
heavy 2: DVQLVESGGGLVQPGRSLKLSCAASGFIFSYFDMAWVRQAPTKGLEWVASISPSGDIPYYRDSVKGRFTVSRENAKSSLYLQMDSLRSEDTATYYCARRSYGGYSELDYWGQGVMVTVSSAKTTPPSVYPLAPGSAAQTNSMVTLGCLVKGYFPEPVTVTWNSGSLSSGVHTFPAVLQSDLYTLSSSVTVPSSTWPSQTVTCNVAHPASSTKVDKKIVPRDCGCKPCICTVPEVSSVFIFPPKPKDVLTITLTPKVTCVVVAISKDDPEVQFSWFVDDVEVHTAQTKPREEQINSTFRSVSELPIMHQDWLNGKEFKCRVNSAAFGAPIEKTISKTKGRPKAPQVYTIPPPKKQMAKDKVSLTCMITNFFPEDITVEWQWNGQPAENYKNTQPIMKTDGSYFVYSKLNVQKSNWEAGNTFTCSVLHEGLHNHHTEKSLSHSPGGGGGSGGGGSGGGGSGGGGSEVQLLESGGGLVQPGGSLRLSCAASGFTFSSHAMSWVRQAPGKGLEWVSAIWASGEQYYADSVKGRFTISRDNSKNTLYLQMNSLRAEDTAVYYCAKGWLGNFDYWGQGTLVTVSS
light: DIQMTQSPASLSASLEEIVTITCQASQDIGNWLAWYHQKPGKSPQLLIYGTSSLADGVPSRFSGSSSGSQYSLKISRLQVEDIGIYYCLQAYGAPWTFGGGTKLELKRADAAPTVSIFPPSSEQLTSGGASVVCFLNNFYPKDINVKWKIDGSERQNGVLNSWTDQDSKDSTYSMSSTLTLTKDEYERHNSYTCEATHKTSTSPIVKSFNRNEC
notes: It is a mouse IgG1 with DAPG (D265A, P329G) and DD/KK heterodimerisation mutations, bivalent for mouse 4-1BB and monovalent for FAP; also called muFAP-4-1BB; mouse surrogate muFAP-4-1BB
B1: binds.
